Where a chain is given by its changes, count along the chain named. One block for each binder: values may come before it.
Legend:
[1] = target: His-tagged cynomolgus 4-1BB protein (cynomolgus) (UniProt A9YYE7); assay: ELISA, coated His-tagged 4-1BB, anti-human IgG-HRP
[2] = target: human 4-1BB expressed on cells (human) (UniProt Q07011); assay: flow cytometry on CHO-K1/hu4-1BB cells, anti-human Fc-Alexa Fluor 633
Chain of human 4-1BB expressed on cells (human) (Q07011 24-255): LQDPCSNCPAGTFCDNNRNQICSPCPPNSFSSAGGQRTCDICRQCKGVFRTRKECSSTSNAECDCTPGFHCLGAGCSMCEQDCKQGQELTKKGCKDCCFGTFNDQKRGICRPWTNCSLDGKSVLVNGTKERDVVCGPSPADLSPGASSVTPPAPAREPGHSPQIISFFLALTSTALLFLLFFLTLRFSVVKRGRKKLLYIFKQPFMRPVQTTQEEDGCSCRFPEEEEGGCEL

Chain of His-tagged cynomolgus 4-1BB protein (cynomolgus) (A9YYE7 entry or part of it): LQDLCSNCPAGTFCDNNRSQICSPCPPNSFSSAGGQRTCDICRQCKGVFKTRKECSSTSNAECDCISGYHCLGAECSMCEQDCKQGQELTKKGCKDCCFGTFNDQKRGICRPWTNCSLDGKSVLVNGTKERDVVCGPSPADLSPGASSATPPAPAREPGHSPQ

- EC50 [1]: > 30 nM
B1: VV02-1LP-288 (Fc fusion, not shown: a dimerising Fc or GST; small tags and cut ends)
VHH: EVQVVESGGGLVQPGGSLRLSCAASGSSLDYSAIGWFRQAPGKEREGVLCISSSGDVTIYADSVKGRFTISRDNAKNTVYLQMNSLKPEDTAVYYCVAPRICSTYSSDDYWGQGTQVTVSS

- EC50 [1]: > 30 nM
B2: VV02-1LP-417 (Fc fusion, not shown: a dimerising Fc or GST; small tags and cut ends)
VHH: B1 VHH with E1Q, V2L, V4L, S27F, S28A

- Max (MFI) [2]: 233 MFI
B3: VV02-1SP (1)-73 huNb_1_1 (Fc fusion, not shown: a dimerising Fc or GST)
VHH: EVQLLESGGGLVQPGGSLRLSCAASGFTFSSSAMSWARQAPGKGLEWVSSIYSSGKTYYVESVKGRFTISRDNSKNTLYLQMNSLRAEDTAVYYCAKWKTLRVGVWDESDYWGQGTLVTVSS

Source: patent US20240383993A1
